# Source: patent US20260242852
# Molecular target: AsCas12a (Acidaminococcus sp.?) (UniProt U2UMQ6)
# Experiment: BLI
# Details: ΨDNA guide binding without target; NEB 2.1, 0.05% Triton X
sequence,measurement,value
AGCACCCAGTCCGCCCTGAGTAGATGTGAATCATCTTTAAT [AsCas12a GFP ΨDNA 3'-biotin],Kd,0.0245 µM
